Data from US20150147270A1.

What was measured:
[1] = biological target: mouse F4/80 receptor expressed on macrophages (RAW 264.7 cells) (mouse) (UniProt Q61549); assay: SPR (BI-2000), Fab'-covered NPs on a carboxydextran gold chip, RAW 264.7 cells injected at 2.5k cells/mL
[2] = biological target: mouse F4/80 receptor expressed on macrophages (RAW 264.7 cells) (mouse) (UniProt Q61549); assay: cell-based or functional assay
[3] = biological target: mouse F4/80 receptor expressed on macrophages (RAW 264.7 cells) (mouse) (UniProt Q61549); assay: SPR (BI-2000), Fab'-covered NPs on a carboxydextran gold chip, RAW 264.7 cells injected at 7.5k cells/mL
[4] = biological target: mouse F4/80 receptor expressed on macrophages (RAW 264.7 cells) (mouse) (UniProt Q61549); assay: SPR (BI-2000), Fab'-covered NPs on a carboxydextran gold chip, RAW 264.7 cells injected at 10k cells/mL
[5] = biological target: mouse F4/80 receptor expressed on macrophages (RAW 264.7 cells) (mouse) (UniProt Q61549); assay: SPR (BI-2000), Fab'-covered NPs on a carboxydextran gold chip, RAW 264.7 cells injected at 5k cells/mL
[6] = biological target: mouse F4/80 receptor expressed on macrophages (RAW 264.7 cells) (mouse) (UniProt Q61549); assay: SPR, antibody-covered NPs coated on a gold chip, Raw 264.7 cells injected

UniProt Q61549, sequence (Q61549 28-931): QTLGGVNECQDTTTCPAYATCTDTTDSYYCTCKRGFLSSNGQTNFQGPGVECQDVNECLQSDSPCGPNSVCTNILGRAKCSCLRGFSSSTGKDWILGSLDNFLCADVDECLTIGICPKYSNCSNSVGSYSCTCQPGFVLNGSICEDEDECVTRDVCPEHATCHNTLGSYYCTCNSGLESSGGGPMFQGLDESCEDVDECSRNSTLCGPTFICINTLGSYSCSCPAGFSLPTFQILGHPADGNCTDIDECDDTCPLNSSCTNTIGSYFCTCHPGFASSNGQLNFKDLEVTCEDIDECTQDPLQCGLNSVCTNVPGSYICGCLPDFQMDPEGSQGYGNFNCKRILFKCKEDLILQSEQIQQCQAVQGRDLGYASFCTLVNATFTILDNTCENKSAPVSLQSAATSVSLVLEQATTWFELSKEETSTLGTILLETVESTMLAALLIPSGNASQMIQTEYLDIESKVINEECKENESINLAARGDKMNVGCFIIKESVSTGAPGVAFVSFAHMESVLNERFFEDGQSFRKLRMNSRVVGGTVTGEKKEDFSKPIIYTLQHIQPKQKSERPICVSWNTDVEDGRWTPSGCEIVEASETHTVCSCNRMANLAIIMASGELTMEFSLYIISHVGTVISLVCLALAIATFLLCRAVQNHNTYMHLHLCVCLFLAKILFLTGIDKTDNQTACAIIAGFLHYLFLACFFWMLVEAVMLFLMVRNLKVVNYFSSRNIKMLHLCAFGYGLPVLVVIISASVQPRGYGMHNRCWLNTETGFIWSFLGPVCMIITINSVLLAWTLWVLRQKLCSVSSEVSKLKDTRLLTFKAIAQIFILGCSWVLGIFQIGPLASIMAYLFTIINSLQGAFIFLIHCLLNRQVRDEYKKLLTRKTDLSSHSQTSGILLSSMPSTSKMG

Row | resonance angle deviation [1] [mDeg] | average fluorescent intensity per unit of surface area of RAW 264.7 cells exposed to NPs loaded with FITC-tagged siRNA (15 minutes, 500 ug/mL); non-coated NPs gave 10279 AU/um^2 [2] [AU/µm^2] | percent of colonic MPs (CD11c(-)CD11b(+)F4/80(+)) with positive FITC signals by flow cytometry after gavage of DSS-treated mice with NPs loaded with FITC-tagged siRNA; non-coated NPs gave 19% [2] [%] | resonance angle deviation [3] [mDeg] | resonance angle deviation [4] [mDeg] | resonance angle deviation [5] [mDeg] | binding coefficient [6] | Substance
1 | 13 | 51300 | 28 | 33 | 42 | 17 | – | Fab' fragment of the F4/80 antibody covalently attached to PLA-PEG nanoparticles
2 | – | – | – | – | – | – | 50 | mouse F4/80 antibody grafted onto maleimide-polyethyleneglycol-poly(lactic acid) nanoparticles
